PMC5358725 (Genes & Development, 2017)

T1: Flag-3C-Mcm10-V5 (S. cerevisiae, UniProt P32354 1-571)
T1 sequence: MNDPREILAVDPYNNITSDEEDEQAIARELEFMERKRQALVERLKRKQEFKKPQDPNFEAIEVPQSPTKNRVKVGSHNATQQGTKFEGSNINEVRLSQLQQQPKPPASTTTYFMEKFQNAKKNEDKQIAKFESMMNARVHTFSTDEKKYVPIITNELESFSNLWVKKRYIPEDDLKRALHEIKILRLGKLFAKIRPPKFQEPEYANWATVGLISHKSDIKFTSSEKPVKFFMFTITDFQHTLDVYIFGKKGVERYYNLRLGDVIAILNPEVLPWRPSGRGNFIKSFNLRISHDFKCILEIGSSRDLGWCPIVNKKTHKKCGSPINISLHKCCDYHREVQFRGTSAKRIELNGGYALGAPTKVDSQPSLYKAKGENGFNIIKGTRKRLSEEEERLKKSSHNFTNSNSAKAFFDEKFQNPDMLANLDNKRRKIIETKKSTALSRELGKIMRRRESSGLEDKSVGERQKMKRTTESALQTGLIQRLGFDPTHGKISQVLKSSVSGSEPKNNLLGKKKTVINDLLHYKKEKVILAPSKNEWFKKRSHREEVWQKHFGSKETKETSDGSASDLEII


Biological target: T1, Flag-3C-Mcm10-V5
Experiment: co-IP

Row | binding result | Binder
1 | binds | MBP-Mcm2 196–299 (domain or fragment) EWITQPNVSRTIARELKSFLLEYTDETGRSVYGARIRTLGEMNSESLEVNYRHLAESKAILALFLAKCPEEMLKIFDLVAMEATELHYPDYARIHSEIHVRISD
2 | binds | Mcm2 1–483 (C-terminally 6xHis-tagged) (domain or fragment) MSDNRRRRREEDDSDSENELPPSSPQQHFRGGMNPVSSPIGSPDMINPEGDDNEVDDVPDIDEVEEQMNEVDLMDDNMYEDYAADHNRDRYDPDQVDDREQQELSLSERRRIDAQLNERDRLLRNVAYIDDEDEEQEGAAQLDEMGLPVQRRRRRRQYEDLENSDDDLLSDMDIDPLREELTLESLSNVKANSYSEWITQPNVSRTIARELKSFLLEYTDETGRSVYGARIRTLGEMNSESLEVNYRHLAESKAILALFLAKCPEEMLKIFDLVAMEATELHYPDYARIHSEIHVRISDFPTIYSLRELRESNLSSLVRVTGVVTRRTGVFPQLKYVKFNCLKCGSILGPFFQDSNEEIRISFCTNCKSKGPFRVNGEKTVYRNYQRVTLQEAPGTVPPGRLPRHREVILLADLVDVSKPGEEVEVTGIYKNNYDGNLNAKNGFPVFATIIEANSIKRREGNTANEGEEGLDVFSWTEEEERE
